These results are taken from publication PMC11429891.

pKd: −log10 of the molar value.

This assay concerns the target human recombinant SNAP25 (Synaptosomal Associated Protein 25) (human) (UniProt P60880). The assay can be described thus: SPR.

Chain of human recombinant SNAP25 (Synaptosomal Associated Protein 25) (human) (P60880 whole entry): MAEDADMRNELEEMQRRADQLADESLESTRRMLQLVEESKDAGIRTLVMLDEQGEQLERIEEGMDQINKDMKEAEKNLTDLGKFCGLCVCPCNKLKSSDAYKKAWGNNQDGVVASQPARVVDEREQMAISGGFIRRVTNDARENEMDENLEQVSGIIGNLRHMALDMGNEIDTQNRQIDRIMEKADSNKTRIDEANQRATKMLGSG

As to “Human type V Collagen (from UniProt P20908 38-1605; P05997 27-1229) (complex)”, the pKd is 5.14.

One may read the pKd as the negative decadic logarithm of the Kd, by convention in mol/L.
